In the supplement of paper PMC7877785:
± gives the uncertainty stated by the source.

Test: self-splicing fitness, log relative to wild type (ln ratio); higher = more splicing; Tetrahymena group I intron in knt gene, E. coli kanamycin selection, DiMSum; sequences stand for … in CUCUCU…GGAGGGAAAAGUUAUCAGGCAUGCACCUGGUAGCUAGUCUUUAAACCAAUAGAUUGCAUCGGUUUAAAAGGCAAGACCGUCAAAUUGCGGGAAAGGGGUCAACAGCCGUUCAGUACCAAGUCUCAGGGGAAACUUUGAGAUGGCCUUGCAAAGGGUAUGGUAAUAAGCUGACGGACAUGGUCCUAACCACGCAGCCAAGUCCUAAGUCAACAGAUCUUCUGUUGAUAUGGAUGCAGUUCACAGACUAAAUGUCGGUCGGGGAAGAUGUAUUCUUCUCAUAAGAUAUAGUCGGACCUCUCCUUAAUGGGAGCUAGCGGAUGAAGUGAUGCAACACUGGAGCCGCUGGGAACUAAUUUGUAUGCGAAAGUAUAUUGAUUAGUUUUGGAGUACUCGUGGUCG
Outline: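 DiMSum derived fitness as the error-weighted combination of fold changes across replicates, kanamycin versus no kanamycin, normalised to wild type. E. coli BL21(DE3) held the library, which randomised all eight P1ex-region intron nucleotides within the knt kanamycin-resistance gene on pET-22b(+). Six replicate transformations grew overnight at 37°C or 30°C on LB agar with or without 25 μg/mL kanamycin, also containing 100 μg/mL carbenicillin, 50 μM IPTG and 0.2% rhamnose, and pooled colonies were amplicon-sequenced on an Illumina HiSeq 2500.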

Sequence | self-splicing fitness (ln) (30 °C) | self-splicing fitness (ln) (37 °C)
CCUGAGCAAUAUUACGCUCU | -3.59 ± 0.43 | -2.26 ± 0.25
ACAGAGCAAUAUUACGGGGC | -3.53 ± 0.17 | -2.73 ± 0.22
CACGAGCAAUAUUACGGGUC | -4.31 ± 0.26 | -1.99 ± 0.15
CCCGAGCAAUAUUACGGCUC | -4.18 ± 0.34 | -2.21 ± 0.23
GGGUAGCAAUAUUACGACAA | -0.573 ± 0.24 | -0.263 ± 0.21
UGCAAGCAAUAUUACGCAUU | -4.37 ± 0.27 | -3.61 ± 0.26
AUAAAGCAAUAUUACGGAUA | -1.7 ± 0.11 | -0.75 ± 0.11
ACGUAGCAAUAUUACGGGUC | -3.56 ± 0.19 | -3.42 ± 0.25
GCGCAGCAAUAUUACGGGCA | -2.9 ± 0.14 | -1.24 ± 0.11
CCUUAGCAAUAUUACGAUGG | -2.24 ± 0.13 | -2.26 ± 0.16
GUGAAGCAAUAUUACGGGUC | -2.26 ± 0.21 | -2.21 ± 0.28
AUGGAGCAAUAUUACGAAGU |  | -1.77 ± 0.36
UCGAAGCAAUAUUACGCAGU | -0.00368 ± 0.23 | -0.973 ± 0.47
GUCCAGCAAUAUUACGGACG | -2.99 ± 0.26 | -0.833 ± 0.18
UGAGAGCAAUAUUACGGUGA | -2.54 ± 0.36 | -2.73 ± 0.44
AACAAGCAAUAUUACGUAAA | -2.36 ± 0.09 | -1.17 ± 0.098
AUUGAGCAAUAUUACGUCUG | -3.22 ± 0.21 | -3 ± 0.26
CUGAAGCAAUAUUACGGGCU | -3.56 ± 0.17 | -3.15 ± 0.21
CGACAGCAAUAUUACGCAAG | -1.28 ± 0.081 | -0.83 ± 0.097
GAAAAGCAAUAUUACGUCCG | -1.72 ± 0.12 | -0.481 ± 0.14
AGCAAGCAAUAUUACGGGCA | -0.263 ± 0.071 | 0.111 ± 0.084
UGGCAGCAAUAUUACGAUAC | -3.31 ± 0.48 | -1.99 ± 0.38
GAAGAGCAAUAUUACGUUUA | -1.61 ± 0.15 | -2.56 ± 0.2
CCUGAGCAAUAUUACGUAUC |  | -2.46 ± 0.23
CAAAAGCAAUAUUACGCGUA | -2.01 ± 0.12 | -1.32 ± 0.11

Sequence | self-splicing fitness (ln) (30 °C) | self-splicing fitness (ln) (37 °C)
UGCUAGCAAUAUUACGCUCU | -1.63 ± 0.13 | -0.156 ± 0.15
AAGAAGCAAUAUUACGAGGC | -3.86 ± 0.42 | -2.48 ± 0.33
AGUCAGCAAUAUUACGCACU | -2.19 ± 0.12 | -1.42 ± 0.13
UCAAAGCAAUAUUACGGUUA | -1.04 ± 0.092 | -0.132 ± 0.087
CAUGAGCAAUAUUACGAGGC | -2.4 ± 0.2 | -2.34 ± 0.26
AAGGAGCAAUAUUACGUGGA | -2.36 ± 0.2 | -1.75 ± 0.2
AAUAAGCAAUAUUACGCUCU | -0.422 ± 0.079 | -0.115 ± 0.09
GUGCAGCAAUAUUACGCCGU | -2.77 ± 0.23 | -0.412 ± 0.18
AGGCAGCAAUAUUACGAUAU | -1.27 ± 0.069 | -0.399 ± 0.091
AAAUAGCAAUAUUACGUCUG | -1.3 ± 0.068 | -0.843 ± 0.088
UCGCAGCAAUAUUACGGCCU | -0.665 ± 0.057 | 0.148 ± 0.076
AUUAAGCAAUAUUACGGCAC | -1 ± 0.086 | -0.297 ± 0.11
ACUGAGCAAUAUUACGAGAC | -2.78 ± 0.22 | -2.63 ± 0.2
AUGAAGCAAUAUUACGUCUG | -0.0483 ± 0.061 | 0.316 ± 0.079
ACCUAGCAAUAUUACGCCAC | -2.11 ± 0.4 | 
CGGGAGCAAUAUUACGGGUU | -2.34 ± 0.32 | -2.53 ± 0.26
UAAUAGCAAUAUUACGGUAG | -3.43 ± 0.14 | -2.05 ± 0.14
GAGUAGCAAUAUUACGAAAA | -2.8 ± 0.38 | 
GUAUAGCAAUAUUACGGCGA | -1.21 ± 0.097 | -0.087 ± 0.1
AUCAAGCAAUAUUACGAGGU | -3.52 ± 0.2 | -3.4 ± 0.33
UCAAAGCAAUAUUACGACAG | -2.66 ± 0.14 | -1.25 ± 0.14
GCCGAGCAAUAUUACGGAAA | -0.987 ± 0.1 | -0.953 ± 0.1
AACAAGCAAUAUUACGCCGC | -3.05 ± 0.31 | -1.94 ± 0.36
GGAAAGCAAUAUUACGAGCG | -0.482 ± 0.12 | 0.397 ± 0.12
AGGCAGCAAUAUUACGACGA | -0.555 ± 0.12 | -0.00249 ± 0.14

Sequence | self-splicing fitness (ln) (30 °C) | self-splicing fitness (ln) (37 °C)
AUUCAGCAAUAUUACGGCCU | -1.03 ± 0.12 | 0.0851 ± 0.22
GUCUAGCAAUAUUACGUGAA | -0.302 ± 0.1 | 0.449 ± 0.097
UCUCAGCAAUAUUACGUUCG | -3.46 ± 0.2 | -2.28 ± 0.25
AUAGAGCAAUAUUACGUGUA | -3.02 ± 0.18 | -1.17 ± 0.16
UGAUAGCAAUAUUACGAAGU | -3.67 ± 0.25 | -3.22 ± 0.26
GCAGAGCAAUAUUACGAAUU | -3.99 ± 0.42 | -2.05 ± 0.37
GUGGAGCAAUAUUACGAUGG |  | -2.9 ± 0.38
CUUCAGCAAUAUUACGCCUA |  | -2.38 ± 0.32
UUACAGCAAUAUUACGUUGG | -2.6 ± 0.12 | -1.69 ± 0.13
UCGCAGCAAUAUUACGGGUA | -1.78 ± 0.071 | -1.08 ± 0.052
UCUCAGCAAUAUUACGCUUU | -3.09 ± 0.3 | -2.22 ± 0.31
GAGCAGCAAUAUUACGACCG | -2.42 ± 0.12 | -1.27 ± 0.15
CCUCAGCAAUAUUACGUGGG | -4.89 ± 0.25 | -3.15 ± 0.19
GAGUAGCAAUAUUACGGGAG | -2.18 ± 0.19 | -3.1 ± 0.24
AGUCAGCAAUAUUACGAUAC | -1.69 ± 0.12 | -0.336 ± 0.11
GCGUAGCAAUAUUACGGAGC | -4.23 ± 0.28 | -3.03 ± 0.35
CACCAGCAAUAUUACGCCGA | -2.88 ± 0.19 | -1.86 ± 0.21
UGAGAGCAAUAUUACGGGUC |  | -1.33 ± 0.45
UGGCAGCAAUAUUACGCCAG | -1.46 ± 0.14 | -1.59 ± 0.21
GAGAAGCAAUAUUACGUAGC | -3.47 ± 0.35 | -0.876 ± 0.21
CAACAGCAAUAUUACGCAAG | -1.48 ± 0.07 | -0.352 ± 0.085
CGUCAGCAAUAUUACGCCCA | -0.52 ± 0.12 | -0.0594 ± 0.14
CGUCAGCAAUAUUACGUUUA | -2.93 ± 0.18 | -1.66 ± 0.16
UUACAGCAAUAUUACGGUGU | -4.36 ± 0.46 | -2.23 ± 0.21
CCAUAGCAAUAUUACGGGAA | -3.49 ± 0.19 | -2.84 ± 0.18

Sequence | self-splicing fitness (ln) (30 °C) | self-splicing fitness (ln) (37 °C)
ACUUAGCAAUAUUACGGUCU | -1.41 ± 0.088 | 0.0181 ± 0.082
CGCUAGCAAUAUUACGUCUC | -2.62 ± 0.48 | -1.46 ± 0.23
ACUCAGCAAUAUUACGUGGU | -3.75 ± 0.12 | -2.75 ± 0.12
GUACAGCAAUAUUACGCGUC | -3.1 ± 0.21 | -0.709 ± 0.14
AGAUAGCAAUAUUACGCUGC |  | -1.26 ± 0.34
AGACAGCAAUAUUACGGGUC | -3.04 ± 0.18 | -2.92 ± 0.31
AAAGAGCAAUAUUACGCCGA | -1.81 ± 0.29 | -2.33 ± 0.34
AGGUAGCAAUAUUACGCGGC | -4.05 ± 0.044 | -2.93 ± 0.048
GCCUAGCAAUAUUACGGACU | -1.01 ± 0.1 | -0.221 ± 0.11
GACUAGCAAUAUUACGCGAC | -1.59 ± 0.28 | -0.817 ± 0.27
CGGAAGCAAUAUUACGGAUC | -3.97 ± 0.37 | -2.04 ± 0.27
CCUCAGCAAUAUUACGGAAG | -1.05 ± 0.11 | -0.549 ± 0.14
AUUAAGCAAUAUUACGGGUG | -1.87 ± 0.13 | -1.69 ± 0.16
CGACAGCAAUAUUACGGUCG | -3.33 ± 0.14 | -2.48 ± 0.15
GAUUAGCAAUAUUACGCUAC | -3.62 ± 0.42 | -1.48 ± 0.29
GAGGAGCAAUAUUACGGACC |  | -0.0508 ± 0.35
CCAUAGCAAUAUUACGUUCC | -3.61 ± 0.39 | -2.52 ± 0.44
AAAAAGCAAUAUUACGAUAU | -0.534 ± 0.061 | -0.545 ± 0.079
GCUAAGCAAUAUUACGGUGA | -0.864 ± 0.073 | -0.0497 ± 0.077
GAAUAGCAAUAUUACGGUAC | -1.1 ± 0.13 | -0.802 ± 0.2
UUCAAGCAAUAUUACGCAUA | -1.24 ± 0.096 | -0.0175 ± 0.1
GUGAAGCAAUAUUACGGGGA | -2.85 ± 0.22 | -2.64 ± 0.29
UUUCAGCAAUAUUACGGAGG | -1.53 ± 0.17 | -0.401 ± 0.18
